Data published in US20200347143A1 (GLENMARK PHARMACEUTICALS S A, published 2020).

Experiments:
human OX40 on cells [1] = biological target: T1, human OX40 on cells (human, UniProt P43489 29-277); experiment: flow cytometry on HPB-ALL cells, 10 µg/ml antibody
T1 construct: whole, on cells; also called OX40 on HPB-ALL cells
T1 sequence (looked up): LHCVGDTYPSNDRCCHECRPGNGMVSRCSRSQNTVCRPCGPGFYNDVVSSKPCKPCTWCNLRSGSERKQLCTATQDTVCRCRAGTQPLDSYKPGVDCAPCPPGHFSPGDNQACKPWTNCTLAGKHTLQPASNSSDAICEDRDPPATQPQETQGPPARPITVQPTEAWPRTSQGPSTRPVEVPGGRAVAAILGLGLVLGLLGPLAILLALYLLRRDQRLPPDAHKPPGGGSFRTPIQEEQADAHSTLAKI
Procedure: HPB-ALL cells (DSMZ, Braunschweig, Germany, Cat. No: ACC483) were used as a human OX40 positive cell line for FACS staining. HPB-ALL were maintained in RPMI 1640 supplemented with 10% FCS and 100 U/ml Penicillin and 100 μg/ml streptomycin. 4×10e5 HPB-ALL cells in FACS buffer (PBS supplemented with 1% BSA and 0.1% sodium azide) were incubated for 45 min on ice with the anti-OX40 antibody of interest kept at a concentration of 10 μg/ml An irrelevant human IgG1 was used as an isotype control; the cells were incubated with a 1/200 dilution of anti-Human Fc-PE (EBioscience, Vienna, Austria) for 45 min on ice. Cells were then washed again and resuspended in 200 μl FACS buffer. The relative mean fluorescence of each sample was measured on a FACSCalibur instrument (BD Biosciences, Allschwil, Switzerland).
A first set of 16 humanized antibodies of human gamma one isotype were prepared. These first humanized candidates were assessed for transient expression in HEK293E cells and binding to HB-ALL cell by flow cytometry (Table 7).

[2] = biological target: T2, recombinant human OX40-his protein (human, UniProt P43489 29-214); experiment: SPR (BIAcore 2000), antibody captured on Protein A, OX40-his injected
T2 construct: Secreted via the native signal peptide, which lies within residues 1-214; also called Human OX40R-His; histidine tagged human OX40 receptor extracellular domain
T2 sequence: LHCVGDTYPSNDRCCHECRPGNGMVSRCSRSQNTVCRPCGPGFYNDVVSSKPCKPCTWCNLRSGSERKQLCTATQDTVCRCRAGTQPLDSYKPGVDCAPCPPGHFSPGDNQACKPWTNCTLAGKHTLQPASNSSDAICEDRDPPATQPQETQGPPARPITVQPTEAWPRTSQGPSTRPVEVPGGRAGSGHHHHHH
Procedure: SPR analysis was used to measure the association and dissociation rate constants for the binding kinetics of the anti-OX40 antibodies. The binding kinetics were measured on a BIAcore 2000 (BIAcore-GE Healthcare Europe GmbH, Glattbrugg, Switzerland) at room temperature and analyzed with the BiaEvaluation software (v4.1, GE Healthcare Europe GmbH).
(§1) Measurements were performed on CM5 sensor chips (Biacore 2000, GE Healthcare Europe GmbH, Cat. No: BR-1000-14) individually coupled with Protein A (Sigma, Buchs, Switzerland, Cat. No: P7837) using a commercial amine coupling kit (GE Healthcare Europe GmbH, Cat. No: BR-1000-50). 200-600 RUs of humanized antibody were captured. Dilution series of OX40-his were injected at a flow rate of 10 μl/min in HBS-EP buffer (GE Healthcare Europe GmbH, Cat. No: BR1001-88). After each binding event, the surface was regenerated with 10 μl of glycine buffer pH 1.5. Experimental data were processed using a 1:1 Langmuir model with local Rmax. The dissociation time was about 7 min. Measurements were performed in duplicates or triplicates and included zero-concentration samples for referencing. Both Chit and residual values were used to evaluate the quality of a fit between the experimental data and individual binding models.

[3] = biological target: T2, recombinant human OX40-his protein; experiment: SPR, antibody captured on Protein A, OX40-his injected
Procedure: as §1
Humanized antibody candidates were then assayed for their binding affinity by SPR and Fab thermal stability by DSC.

human OX40 on cells [4] = biological target: T1, human OX40 on cells; experiment: cell-based or functional assay
human OX40-Fc = biological target: T3, human OX40-Fc (human); experiment: ELISA on coated human OX40-Fc, antibody 10 µg/ml
T3 construct: also called recombinant human OX40-Fc; human OX40 (HHHH)
Procedure: (§2) These constructs were expressed in HEK293-EBNA1 cells and purified using protein A. Then, human and rat OX40-Fc were tested in ELISA and Biacore to determine antibody cross-reactivity. For the ELISA, 96 well-microtiter plates (Costar USA, distributor VWR AG, Nyon, Switzerland) were coated with 100 μl of recombinant human or rat OX40-Fc at 2 μg/ml in PBS. Plates were incubated overnight at 4° C. and were then blocked with PBS 2% BSA (Bovine Serum Albumine, PAA Laboratories, Pasching, Austria) at room temperature (RT) for one hour. The blocking solution was removed and the purified antibodies were added at 10 μg/ml in PBS 2% BSA. The plates were incubated at RT for 1 hour, then washed 5 times with PBS 0.01% Tween-20 (Sigma-Aldrich Chemie GmbH, Buchs, Switzerland). […] Plates were incubated for 1 hour at RT, washed 5 times with PBS 0.01% Tween-20 and the TMB substrate (Bio-rad Laboratories AG, Reinach, Switzerland) was added to the plates and the reaction stopped after 5 minutes by adding H₂SO₄. Absorbance was then read at 450 nm by a microplate reader (Biotek, USA; distributor: WITTEC AG, Littau, Switzerland). Biacore experiments were specifically conducted with Hexa-hzG3V9 and Hexa-hz1D10v1 which are dAb-Fc fusion proteins. […] Binding of human and cyno OX40-Fc molecules was determined by successively injecting these proteins on the 4 flow-paths (flow-path 1 and 3 being used as references) at a concentration of 200 nM and a flow rate of 30 uL/min for 240 seconds. Regeneration between the two injections was done using 3M MgCl2, at 30 uL/min for 60 seconds. Using these two approaches, human/rat OX40 binding was assessed (table 16).

rat OX40-Fc = rat OX40-Fc (rat); experiment: ELISA on coated rat OX40-Fc
rat OX40-Fc (rat), sequence (chain, as listed by the source limits assumed): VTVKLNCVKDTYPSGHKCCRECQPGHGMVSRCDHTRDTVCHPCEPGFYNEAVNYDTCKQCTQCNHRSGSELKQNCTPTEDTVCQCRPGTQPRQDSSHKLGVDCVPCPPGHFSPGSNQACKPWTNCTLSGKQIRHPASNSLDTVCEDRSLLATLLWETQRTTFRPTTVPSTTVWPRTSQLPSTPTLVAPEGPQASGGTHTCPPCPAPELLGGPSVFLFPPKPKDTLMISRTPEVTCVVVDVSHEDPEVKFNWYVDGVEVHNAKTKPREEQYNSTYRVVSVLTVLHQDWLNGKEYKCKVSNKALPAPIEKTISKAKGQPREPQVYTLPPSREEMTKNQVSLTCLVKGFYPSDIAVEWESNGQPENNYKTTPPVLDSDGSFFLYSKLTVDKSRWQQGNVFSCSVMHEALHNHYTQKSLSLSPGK
Procedure: as §2

[5] = biological target: T4, recombinant DR3 molecule (R&D) (UniProt Q93038 25-199, limits assumed); experiment: direct ELISA on coated recombinant DR3, detection streptavidin-HRP, absorbance 450 nm [panel DR3]
T4 sequence (looked up): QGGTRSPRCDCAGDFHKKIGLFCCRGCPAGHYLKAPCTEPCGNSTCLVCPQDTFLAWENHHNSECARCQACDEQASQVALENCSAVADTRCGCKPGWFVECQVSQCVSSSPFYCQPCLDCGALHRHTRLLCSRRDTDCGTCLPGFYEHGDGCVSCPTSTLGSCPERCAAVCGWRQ
Procedure: (§3) FIG. 13. A dose-response of various antibodies was incubated on various receptors, members of Tumor Necrosis Factor Receptor family, then detected with Streptavidin coupled with Horseradish Peroxidase enzyme. […] Each data point is the mean of duplicate values except for control curves that were performed in simplicate.
(§4) The experiment was conducted following the same protocol than previously described. […] These molecules were all coated at 2 μg/ml in PBS overnight at 4° C.

[6] = biological target: T5, recombinant GITR molecule (R&D) (UniProt Q9Y5U5 26-161); experiment: direct ELISA on coated recombinant GITR, detection streptavidin-HRP, absorbance 450 nm [panel GITR]
T5 sequence (looked up): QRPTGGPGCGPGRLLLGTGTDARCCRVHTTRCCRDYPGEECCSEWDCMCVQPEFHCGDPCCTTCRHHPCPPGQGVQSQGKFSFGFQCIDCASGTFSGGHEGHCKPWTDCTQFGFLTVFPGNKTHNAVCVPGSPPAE
Procedure: as §3, §4

[7] = biological target: T6, recombinant DR6 molecule (R&D) (UniProt O75509 42-349, limits assumed); experiment: direct ELISA on coated recombinant DR6, detection streptavidin-HRP, absorbance 450 nm [panel DR6]
T6 sequence (looked up): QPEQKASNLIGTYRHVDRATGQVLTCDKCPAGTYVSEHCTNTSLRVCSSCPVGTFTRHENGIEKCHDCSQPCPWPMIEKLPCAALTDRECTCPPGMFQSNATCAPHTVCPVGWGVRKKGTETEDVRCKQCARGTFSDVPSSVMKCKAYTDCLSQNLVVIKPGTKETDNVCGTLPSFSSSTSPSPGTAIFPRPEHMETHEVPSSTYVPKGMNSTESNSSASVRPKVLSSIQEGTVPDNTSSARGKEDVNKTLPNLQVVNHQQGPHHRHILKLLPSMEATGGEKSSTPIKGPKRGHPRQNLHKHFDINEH
Procedure: as §3, §4

[8] = biological target: recombinant CD40 molecule (R&D) (UniProt P25942 21-193); experiment: direct ELISA on coated recombinant CD40, detection streptavidin-HRP, absorbance 450 nm [panel CD40]
recombinant CD40 molecule (R&D), sequence (P25942 21-193 limits assumed): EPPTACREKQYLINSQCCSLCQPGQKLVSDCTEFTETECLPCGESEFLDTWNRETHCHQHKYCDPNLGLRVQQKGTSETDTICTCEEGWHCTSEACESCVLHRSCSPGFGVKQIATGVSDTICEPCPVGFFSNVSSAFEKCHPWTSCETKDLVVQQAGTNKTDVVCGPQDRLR
Procedure: as §3, §4

[9] = biological target: T2, recombinant human OX40-his protein; experiment: SPR, antibody captured on Protein A, OX40-his injected; remark: listed apart in the source
Procedure: as §1
Finally, Surface Plasmon Resonance analyses were applied to control antibody variant affinities as described earlier.

B1: Chimeric 7H11 IgG1 (antibody, V domains shown)
VH: QVQLQQSGPELVKPGASVKMSCKASGYTFTRYYIHWMNQRPGQGLEWIGWIYPGDGSTKYNEKFKGKTTLTADTSSSTAYMLLSSLTSEDSAIYFCAREYGNYDYWGQGTTVTVSS
VL: DIVMTQSPSSLSVSAGEKVTMSCKSSQSLLNSGNQKNYLAWYQQKPGQPPKLLIYGASTRESGVPDRFTGSGSGTDFTLTISSVQAEDLAVYYCQNDHSYPYTFGGGTKLEIK
notes: Mouse variable domains on human IgG1 heavy constant domains and human kappa constant domain; also called 7H11 (chimeric); chimeric 7H11 antibody
Human OX40 on cells [1]
  MFI: 132
[2]
  Kd: 50 nM
  koff: 0.00066 s⁻¹
  kon: 11600 M⁻¹ s⁻¹
[3]
  Kd: 50 nM

B2: 106-222 IgG1 (antibody, V domains shown)
VH: QVQLVQSGSELKKPGASVKVSCKASGYTFTDYSMHWVRQAPGQGLKWMGWINTETGEPTYADDFKGRFVFSLDTSVSTAYLQISSLKAEDTAVYYCANPYYDYVSYYAMDYWGQGTTVTVSS
VL: DIQMTQSPSSLSASVGDRVTITCKASQDVSTAVAWYQQKPGKAPKLLIYSASYLYTGVPSRFSGSGSGTDFTFTISSLQPEDIATYYCQQHYSTPRTFGQGTKLEIKR
Human OX40 on cells [4]
  % donor responder (>2), SEB assay, IL-2 release: 6%
  Mean, normalized IL-2 release, SEB assay: 0.86
Human OX40-Fc
  binding result: binds
Rat OX40-Fc
  binding result: no binding (tested: 10 µg/ml)

B3: 7H11 IgG1 (Humanized 7H11-VH2 N58K-D54E with 7H11 VL1) (antibody, V domains shown)
VH: QVQLVQSGAEVKKPGASVKVSCKASGYTFTRYYMHWVRQAPGQGLEWMGWIYPGEGSTKYAQKFQGRVTMTRDTSISTAYMELSRLRSDDTAVYYCAREYGNYDYWGQGTLVTVSS
VL: DIVMTQSPDSLAVSLGERATINCKSSQSLLNSGNQKNYLAWYQQKPGQPPKLLIYGASTRESGVPDRFSGSGSGTDFTLTISSLQAEDVAVYYCQNDHSYPYTFGQGTKLEIKR
notes: also called 7H11_v8 IgG1
[5]
  binding result: no binding (tested: 10 µg/ml)
[6]
  binding result: no binding (tested: 10 µg/ml)
[7]
  binding result: no binding (tested: 10 µg/ml)
Rat OX40-Fc
  binding result: no binding (tested: 10 µg/ml)
[8]
  binding result: no binding (tested: 10 µg/ml)

B4: Humanized 7H11-VH2 N58K-D54T (antibody, human IgG1, kappa, V domains shown)
VH: QVQLVQSGAEVKKPGASVKVSCKASGYTFTRYYMHWVRQAPGQGLEWMGWIYPGTGSTKYAQKFQGRVTMTRDTSISTAYMELSRLRSDDTAVYYCAREYGNYDYWGQGTLVTVSS
VL: DIVMTQSPDSLAVSLGERATINCKSSQSLLNSGNQKNYLAWYQQKPGQPPKLLIYGASTRESGVPDRFSGSGSGTDFTLTISSLQAEDVAVYYCQNDHSYPYTFGQGTKLEIKR
notes: human IgG1, kappa; also called 7H11 VH D54T
[9]
  Kd: 32 nM

B5: Humanized 7H11-VH2 N58K-D54S (antibody, human IgG1, kappa, V domains shown)
VH: QVQLVQSGAEVKKPGASVKVSCKASGYTFTRYYMHWVRQAPGQGLEWMGWIYPGSGSTKYAQKFQGRVTMTRDTSISTAYMELSRLRSDDTAVYYCAREYGNYDYWGQGTLVTVSS
VL: DIVMTQSPDSLAVSLGERATINCKSSQSLLNSGNQKNYLAWYQQKPGQPPKLLIYGASTRESGVPDRFSGSGSGTDFTLTISSLQAEDVAVYYCQNDHSYPYTFGQGTKLEIKR
notes: human IgG1, kappa; also called 7H11 VH D54S
[9]
  Kd: 49 nM

B6: Humanized 7H11 VH2 V37M/VL1 (antibody, human IgG1, kappa, V domains shown)
VH: QVQLVQSGAEVKKPGASVKVSCKASGYTFTRYYMHWMRQAPGQGLEWMGWIYPGDGSTNYAQKFQGRVTMTRDTSISTAYMELSRLRSDDTAVYYCAREYGNYDYWGQGTLVTVSS
VL: DIVMTQSPDSLAVSLGERATINCKSSQSLLNSGNQKNYLAWYQQKPGQPPKLLIYGASTRESGVPDRFSGSGSGTDFTLTISSLQAEDVAVYYCQNDHSYPYTFGQGTKLEIKR
notes: human IgG1, kappa
[3]
  Kd: 2.87 nM

B7: 9B12 IgG1 (antibody, V domains shown)
VH: QVQLQESGPGLVKPSQTLSLTCAVYGGSFSSGYWNWIRKHPGKGLEYIGYISYNGITYHNPSLKSRITINRDTSKNQYSLQLNSVTPEDTAVYYCARYKYDYDGGHAMDYWGQGTLVTVSS
VL: DIQMTQSPSSLSASVGDRVTITCRASQDISNYLNWYQQKPGKAPKLLIYYTSKLHSGVPSRFSGSGSGTDYTLTISSLQPEDFATYYCQQGSALPWTFGQGTKVEIKR
notes: also called OX40mab24
Human OX40 on cells [4]
  % donor responder (>2), SEB assay, IL-2 release: 50%
  Mean, normalized IL-2 release, SEB assay: 2.36
Human OX40-Fc
  binding result: binds
Rat OX40-Fc
  binding result: no binding (tested: 10 µg/ml)
